Columns and labels:
[1] = tested on: MAPRE3 ZFN of pair 31/32 (second) (synthetic); test: cell_activity; settings: Cel-1 efficiency of ZFN pair 31/32; no productive tag integration
[2] = tested on: MAPRE3 ZFN of pair 31/32 (first) (synthetic); test: cell_activity; settings: Cel-1 efficiency of ZFN pair 31/32; no productive tag integration

Sequence | activity [1] [%] | activity [2] [%]
AGGAAGGATTCGCAC (double strand) [MAPRE3 half-site 2] | 21 | 
TTCCTCTCTCTCCCAC (double strand) [MAPRE3 half-site 1] |  | 21
